In test [1] the target is T1, wild-type rat IGF-I receptor (FLAG tag, Example 7) (rat, UniProt P24062 31-1370).
T1 construct: Expressed on transfected HEK 293T cells
Nature of the test: Cell ELISA on HEK 293T cells expressing the receptor. How it is done:
(§1) HEK 293T cells were seeded in a 10-cm dish coated with poly-D-lysine at 9×10⁶ cells/well. On the next day, each plasmid DNA was transfected into the cells by lipofection. On the following day, the HEK 293T cells were detached with 0.25% trypsin/EDTA and were suspended in a broth. The HEK 293T cells were added to a 96-well plate (coated with poly-D-lysine) at a concentration of 0.8×10⁵ cells/well and were incubated at 37° C. under conditions of 5% CO₂ overnight. The medium was removed from the 96-well plate, and the cells were immobilized with a 10% buffered formalin (Mildform® 10 NM, Wako). The 10% buffered formalin was replaced with a blocking buffer (3% BSA/PBS/sodium azide), and the plate was used in ELISA.
(§2) After washing with a washing liquid twice, anti-mouse-IgG antibody-HRP conjugate solutions (50 μL) adjusted to predetermined concentrations with 0.1% skimmed milk/3% BSA/PBS were added to respective wells and were subjected to reaction at room temperature for about 1 hour. After washing with a washing liquid twice, 100 μL of a substrate (TMB) was added to each well to start the reaction. After about 30 minutes, 100 μL of 0.5 M sulfuric acid was added to each well to stop the reaction, and the absorbances at 450 nm was measured. The value of the absorbance at 450 nm was evaluated as the avidity.
(In general: ELISA stands for enzyme-linked immunosorbent assay.)

Test [2] has as its target T2, Substitution 3 of the CR domain (human IGF-I receptor G315S/S316T, FLAG tag) (human, UniProt P08069 31-1367).
T2 construct: Expressed on transfected HEK 293T cells
Nature of the test: Cell ELISA on HEK 293T cells expressing the substitution. How it is done:
as §1, §2

In another test the target is T3, hINSR[L1-L2]/hIGFIR (human).
T3 construct: Chimeric receptor on transfected P3U1 cells
Nature of the test: Cell ELISA, 10 nM antibody, fixed P3U1 cells expressing the chimera. As for the experimental part: (§3) The gene of hIGFIR[L1-L2]/hINSR as Substitution 1 is shown in SEQ ID NO: 23; the gene of hINSR[L1-L2]/hIGFIR as Substitution 2 is shown in SEQ ID NO: 24; the gene of hINSR[L1]/hIGFIR as Substitution 3 is shown in SEQ ID NO: 25; and the gene of hINSR[L2]/hIGFIR as Substitution 4 is shown in SEQ ID NO: 26. After the lipofection, the P3U1 cells were cultured at least overnight and were added to a 96-well plate (coated with poly-D-lysine) at a concentration of 0.8×10⁵ cells/well and immobilized with 10% buffered formalin (Mildform® 10 NM, Wako), followed by blocking with phosphate buffer containing 3% BSA. The plate was used in ELISA.
(§4) In ELISA, 30 μL of an antibody solution adjusted to 10 nM with 0.1% skimmed milk/3% BSA/PBS was added to each well and was subjected to reaction at room temperature for about 1.5 hours. After washing with a washing liquid twice, 30 μL of an anti-mouse-IgG antibody-HRP conjugate solution adjusted to 5 nM with 0.1% skimmed milk/3% BSA/PBS was added to each well and was subjected to reaction at room temperature for about 1 hour. After washing with a washing liquid twice, 50 μL of a substrate (TMB) was added to each well to start the reaction. After about 20 minutes, 50 μL of 0.5 M sulfuric acid was added to each well to stop the reaction. The absorbances at 450 nm and 550 nm were measured, and the difference between absorbance values at 450 nm and 550 nm was calculated. The avidity was calculated based on the difference between absorbance values at 450 nm and 550 nm for cells (Mock cells, SEQ ID NO: 22) transfected with a vector not containing the gene of each substitution as a standard value 1 (Table 3).

The target in the next test is T4, hINSR[L1]/hIGFIR (human).
T4 construct: Chimeric receptor on transfected P3U1 cells
The test is described as above. As for the experimental part: as §3, §4

The target of another test is T5, hINSR[L2]/hIGFIR (human).
T5 construct: Chimeric receptor on transfected P3U1 cells
The test is described as above. How it is done: as §3, §4

The target of the next test is T6, hIGFIR[L1-L2]/hINSR (human).
T6 construct: Chimeric receptor on transfected P3U1 cells
Described as above. How it is done: as §3, §4

The target of test [3] is T7, recombinant human IGF-I receptor His tag (305-GR-050, R&D SYSTEMS) (human, UniProt P08069 31-932, limits assumed).
T7 construct: Bought protein, captured on an anti-His antibody chip; also called IGF-IR-His; not shown: His tag
The test can be described thus: SPR, Biacore T200, 36 °C, IGF-IR-His captured by anti-His antibody, 1:1 model. How it is done:
An anti-His monoclonal antibody was immobilized to a sensor chip CM3 (GE) with an Amine Coupling Kit (BR-1000-50, GE) and a His Capture Kit (28-9950-56, GE). The immobilization conditions were NHS/EDC: 7 minutes, 50 μg/mL anti-His monoclonal antibody: 3 minutes, ethanolamine: 7 minutes, and target: ≥3000 RU. As analytes, the agent was used at predetermined concentrations.
The sensor chip CM3 immobilized with the anti-His monoclonal antibody was set to Biacore T200, the reaction temperature was set to 36° C., and a running buffer (HBS-EP+, BR-1006-69, GE) was fed at a flow rate 30 μL/min. The amount of the binding ligand was set to about 100 RU, and IGF-IR-His (0.5 to 2×10⁻⁸ mol/L) was added to the sensor chip to be captured by the anti-His monoclonal antibody. Ctrl IgG2a (10 nmol/L) was allowed to react for 1 minute, and HBS-EP+ was fed at a flow rate of 30 μL/min for at least 10 minutes. The analyte and HBS-EP+ were added to flow cells (1 and 2) and flow cells (3 and 4), respectively.
The reaction conditions were set to a binding time of 600 seconds and a dissociation time of 600 seconds. After completion of the reaction, washing was performed with regeneration buffer 1 (0.2% SDS), regeneration buffer 2 (100 mmol/L Tris-HCl (pH 8.5), 1 mol/L NaCl, 15 mmol/L MgCl₂), and regeneration buffer 3 (10 mmol/L glycine-HCl (pH 1.5)) for 1 minute each at a flow rate of 30 μL/min.

T1 sequence (P24062 other isoform, or with tags, fused parts or gaps limits assumed): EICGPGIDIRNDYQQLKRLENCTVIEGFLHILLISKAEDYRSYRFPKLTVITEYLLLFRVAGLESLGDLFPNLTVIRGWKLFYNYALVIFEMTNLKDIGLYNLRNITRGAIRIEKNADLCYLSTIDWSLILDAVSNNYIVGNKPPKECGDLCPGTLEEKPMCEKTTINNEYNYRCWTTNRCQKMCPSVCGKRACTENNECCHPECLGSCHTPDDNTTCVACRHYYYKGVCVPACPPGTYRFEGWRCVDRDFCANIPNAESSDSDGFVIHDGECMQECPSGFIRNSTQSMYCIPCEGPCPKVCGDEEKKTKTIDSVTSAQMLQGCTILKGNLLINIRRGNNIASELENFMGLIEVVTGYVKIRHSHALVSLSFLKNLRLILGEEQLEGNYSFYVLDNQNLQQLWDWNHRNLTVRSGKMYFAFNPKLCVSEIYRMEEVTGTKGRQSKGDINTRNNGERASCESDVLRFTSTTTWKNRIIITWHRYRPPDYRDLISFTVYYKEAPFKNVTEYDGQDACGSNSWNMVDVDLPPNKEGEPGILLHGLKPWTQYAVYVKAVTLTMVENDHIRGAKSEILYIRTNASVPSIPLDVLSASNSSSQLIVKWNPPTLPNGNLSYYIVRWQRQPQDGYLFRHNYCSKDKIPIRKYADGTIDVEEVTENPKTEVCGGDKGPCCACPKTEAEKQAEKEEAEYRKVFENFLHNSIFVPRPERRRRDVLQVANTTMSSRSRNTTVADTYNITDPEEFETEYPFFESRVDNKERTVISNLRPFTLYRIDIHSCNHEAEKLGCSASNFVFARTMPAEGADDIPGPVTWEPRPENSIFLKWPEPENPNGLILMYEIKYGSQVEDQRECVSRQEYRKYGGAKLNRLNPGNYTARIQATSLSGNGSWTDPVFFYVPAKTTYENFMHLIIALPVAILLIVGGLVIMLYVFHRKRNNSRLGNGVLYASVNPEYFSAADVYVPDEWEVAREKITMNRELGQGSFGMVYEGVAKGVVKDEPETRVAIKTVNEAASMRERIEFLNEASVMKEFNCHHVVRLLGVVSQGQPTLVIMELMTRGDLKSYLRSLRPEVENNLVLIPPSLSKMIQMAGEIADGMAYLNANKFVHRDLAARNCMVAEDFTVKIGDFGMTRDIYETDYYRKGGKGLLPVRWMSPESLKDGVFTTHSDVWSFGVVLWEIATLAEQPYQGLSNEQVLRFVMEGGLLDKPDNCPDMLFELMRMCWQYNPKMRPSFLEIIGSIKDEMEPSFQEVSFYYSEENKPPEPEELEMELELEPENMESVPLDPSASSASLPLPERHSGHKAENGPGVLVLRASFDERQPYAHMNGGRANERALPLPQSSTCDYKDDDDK

B1: IGF11-16 (antibody, mouse IgG1, kappa, V domains shown)
VH: QIQLQQPGAELVKPGASVKLSCKAPGYTFTSYWMHWVKQRPGQGLEWIGETNPSNSVTNYNEKFKSKATLTVDKSSSTAYMQLSSLTSEDSAVYYCTIGRGRGFAYWGQGTLVTVSA
VL: DIQMNQSPSSLSASLGDTITITCRASQNINFWLSWCQQKPGNIPKLLIYKASNLHTGVPSRFSGSGSGTDFTLTISSLQPEDIATYYCLQGQSYPYTFGGGTKLEIKR
notes: no cleavage site is stated; also called IGF-I receptor agonist antibody; IGF11-16 antibody
The Kd is the concentration at which binding is half-saturated. What is called koff is the rate constant with which the complex falls apart. The kon is a measure of how fast the partners come together. As for B1, the binding result in test [1] and in test [2] was “no binding (tested: 1 nM)” in each case. Besides, the “Avidity (absorbance difference 450-550 nm, Mock cells = 1)” value with hINSR[L1-L2]/hIGFIR was 1.5 fold of Mock cells; with hINSR[L1]/hIGFIR it was 5.7 fold of Mock cells; with hINSR[L2]/hIGFIR it was 5.6 fold of Mock cells; with hIGFIR[L1-L2]/hINSR it was 5.5 fold of Mock cells. In addition, in test [3], the dissociation constant Kd is under 0.01 nM. In addition, the off-rate constant (koff) in test [3] was under 1e-05 s⁻¹. The kon in test [3] was determined as 1.05e+06 M⁻¹ s⁻¹.

The record behind these values is patent US20200115460A1 (TEIJIN PHARMA, published 2020).
